Results on 22 proteins are retold here after patent US20150118700.

Substitutions are numbered along the chain they refer to. Numbers in names are those of the source.

This data set has as its target T1, α-fructosyl hexapeptide (α-fructosyl-valyl-histidyl-leucyl-threonyl-propyl-glutamic acid).
T1 chain: VHLTPE

B1: ketoamine oxidase derived from Neocosmospora vasinfecta (NvFX) (protein)
chain: MTTPRKETTVLIIGGGGTIGSSTALHLLRAGYTPSNITVLDTYPIPSAQSAGNDLNKIMGIRLRNKVDLQLSLEARDMWRNDALFRPFFHNTGRLDCESSAEGVEGLRREYQKLVEAGVGLEETHEWLDSEEAILEKAPLLQREEIEGWKAIWSEEGGWLAAAKAINAIGEELQRQGVRFGFGGAGSFKRPLFADDGTTCIGVETVDGTQYHADKVVLAAGAWSPALVDLEEQCCSKAWVYAHMQLTPEEAAVYKGCPVVYHGDVGFFFEPNENGVIKVCDEFPGFTRFKQHQPYGAPAPKPVSVPRSHAKHPTDTYPDASEESIKRAVSTFLPRFKDKPLFNRALCWCTDTADSALLICEHPRWKNFILATGDSGHSFKLLPIIGKHVVELVEGRLADDLAEAWRWRPGQGDARKSIRAAPAKDLADMPGWKHDQDSESR
Take B1: the Specific activity (U/mg), 1 mM αF6P worked out at 0 U/mg.

B2: NvFX-62D/106K/110L (protein)
chain: B1 chain with R62D, G106K, E110L
Turning to B2, the Specific activity (U/mg), 1 mM αF6P is 0.003 U/mg.

B3: fructosyl amino acid oxidase derived from Aspergillus nidulans with serine 59 substituted with glycine (AnFX) (protein)
chain: MTPRANTKIIVVGGGGTMGSSTALHLLRAGYTPSNITVLDTCPIPSAQSAGYDLNKIMGIRLRNKPDLQLSLEALDMWKNDPLFKPFFHNVGMIDVSSTEEGIEGLRKKYQSLLDAGIGLEKTNFMLESEDEILAKAPHFTQEQIKGWKGLFCGDGGWLAAAKAINAIGQFLKEQGVKFGFGGAGTFKKPLFADAHEKTCIGVETVDGTKYYADKVVLAAGAWSSTLVDLEEQCVSKAWVFAHIQLTPAEAAAYKNTPVIYDGDYGFFFEPNENGIIKVCDEFPGFTHFKMHQPYGSPAPKPISVPRSHAKHPTDTYPHASEVTIKKAINRFLPRFNDKELFNRAMCWCTDTADANLLVCEHPRWKGFYLATGDSGHSFKLLPNIGKHVVELLEERLESVFKDAWRWRPGSGDALKSRRAAPAKDLADMPGWRNEAKM
B3 yielded a Specific activity (U/mg), 1 mM αF6P of 0 U/mg.

B4: AnFX-61D/105K/109L (protein)
chain: B3 chain with R61D, G105K, K109L
Take B4: the Specific activity (U/mg), 1 mM αF6P was 0.106 U/mg.

B5: AnFX-61D/62H/101K/105K/109L/112K/355S (protein)
chain: B3 chain with R61D, L62H, E101K, G105K, K109L, S112K, A355S
Turning to B5, the Specific activity (U/mg), 1 mM αF6P amounted to 0.283 U/mg.

B6: fructosyl peptide oxidase derived from Eupenicillium terrenum (EFP-T5) (protein)
chain: MAHSRASTKVVVVGGGGTIGSSTALHLIRSGYTPSNITVLDVYKTPSLQSAGHDLNKIMGIRLRNGPDLQLSLESLDMWQNDELFKPFFHQVGMIDCSSSKEGIENLRRKYQTLLDAGIGLEKTNVWLESEDEILAKAPNFTREQVKGWKGLFCTDGGWLAAAKAINAIGIFLQDKGVKFGFGDAGTFQQPLFAADGKTCIGLETTDGTKYFADKVVLAAGAWSPTLVDLEDQCVSKAWVFAHIQLTPKEADAYKNVPVVYDGEYGFFFEPDEYGVIKVCDEFPGFSRFKLHQPYGAASPKMISVPRSHAKHPTDTYPDASEVTIRKAIARFLPEFKDKELFNRTMCWCTDTADANLLICEHPKWKNFILATGDSGHSFKLLPNIGKYVVELLEGSLSQEMAGAWRWRPGGDALRSRRGAPAKDLAEMPGWKHDAHL
On to B6, for which the Specific activity (U/mg), 1 mM αF6P turned out to be 0 U/mg.

B7: EFP-T5-62D/63H/106K/110L/113K/355S (protein)
chain: B6 chain with R62D, L63H, N106K, K110L, T113K, A355S
As for B7, the Specific activity (U/mg), 1 mM αF6P was 1.12 U/mg.

B8: EFP-T5-R62D (protein)
chain: B6 chain with R62D
B8 returned a Specific activity (U/mg), 1 mM αF6P of 0.0043 U/mg.

B9: CFP-T7-H14 (protein)
chain: MTSNRADTRVIVVGGGGTIGSSTALHLVRSGYAPANITVLDTFEIPSAQSAGHDLNKIMGIDLRNKVDLQMSLEARQMWKEDELFQPFFHNTGRMDCEHTPEGIEDLKKLYQRLHDAGAGLEKTHAWLDNEDEILSKMPLLQRDQIQGWKAIWSQDGGWLAAAKAINAIGQFLKERGVKFGFGGAGSFKQPLFDDEGTTCIGVETADGTKYYADKVVLAAGAWSPTLVDLEDQCCSKAWVYAHIQLTPEEAAEYKGVPVVYNGEFGFFFEPDEFGVIKVCDEFPGFSRFKEHQPYGAPSPKRISVPRSHAKHPTDTYPDASEVSIKKAIATFLPRFQDKELFNRALCWCTDTADAALLMCEHPKWKNFILATGDSGHSFKILPNVGKYVVELIEGRLPEEMAYQWRWRPGGDALKSRRAAPPKDLADMPGWKHDPKL
In the case of B9, the αF6P oxidation activity ratio, relative to CFP-T7-H6 designated to be 100 (relative (CFP-T7-H6 = 100)) stood at 183 and the αF6P oxidation activity, relative to αFVH oxidation activity designated to be 100 (relative (αFVH = 100)) was 4.22.

B10: CFP-T7-H29 (protein)
chain: B9 chain with L63H, D106K, R113K, A419K
Regarding B10, the αF6P oxidation activity ratio, relative to CFP-T7-H26 designated to be 100 (relative (CFP-T7-H26 = 100)) turned out to be 102 and the αF6P oxidation activity, relative to αFVH oxidation activity designated to be 100 (relative (αFVH = 100)) turned out to be 111.

B11: CFP-T7-H28 (protein)
chain: B9 chain with L63H, E102K, D106K, R113K
For B11, the αF6P oxidation activity ratio (reference row of the table, 100) (relative (CFP-T7-H28 = 100)) stood at 100; the αF6P oxidation activity ratio, relative to CFP-T7-H26 designated to be 100 (relative (CFP-T7-H26 = 100)) stood at 117; the αF6P oxidation activity, relative to αFVH oxidation activity designated to be 100 (relative (αFVH = 100)) was 134.

B12: CFP-T7-H1 (protein)
chain: B9 chain with D62A, L110Q, R113A
B12 gave a αF6P oxidation activity, relative to αFVH oxidation activity designated to be 100 (relative (αFVH = 100)) of 0.0316.

B13: CFP-T7-H27 (protein)
chain: B9 chain with L63K, D106K, R113K
Turning to B13, the αF6P oxidation activity ratio, relative to CFP-T7-H20 designated to be 100 (relative (CFP-T7-H20 = 100)) stood at 7.

B14: CFP-T7-H4 (protein)
chain: B9 chain with D62A, L110Y, R113A
For B14, the αF6P oxidation activity, relative to αFVH oxidation activity designated to be 100 (relative (αFVH = 100)) was 0.0341.

B15: CFP-T7-H3 (protein)
chain: B9 chain with D62A, L110F, R113A
B15 gave a αF6P oxidation activity, relative to αFVH oxidation activity designated to be 100 (relative (αFVH = 100)) of 0.0298.

B16: CFP-T7-H24 (protein)
chain: B9 chain with L63A, D106K, R113K
On to B16, for which the αF6P oxidation activity ratio, relative to CFP-T7-H20 designated to be 100 (relative (CFP-T7-H20 = 100)) worked out at 123 and the αF6P oxidation activity, relative to αFVH oxidation activity designated to be 100 (relative (αFVH = 100)) was 86.7.

B17: CFP-T7-H25 (protein)
chain: B9 chain with L63D, D106K, R113K
Turning to B17, the αF6P oxidation activity ratio, relative to CFP-T7-H20 designated to be 100 (relative (CFP-T7-H20 = 100)) is 24.

B18: CFP-T7-H26 (protein)
chain: B9 chain with L63H, D106K, R113K
For the protein B18, the αF6P oxidation activity ratio (reference, designated to be 100) (relative (CFP-T7-H26 = 100)) is 100; the αF6P oxidation activity ratio, relative to CFP-T7-H20 designated to be 100 (relative (CFP-T7-H20 = 100)) turned out to be 142; the αF6P oxidation activity, relative to αFVH oxidation activity designated to be 100 (relative (αFVH = 100)) was 84.3.

B19: PnFX-62D/106K/110L/113K (protein)
chain: MAPSRANTSVIVVGGGGTIGSSTALHLVRSGYTPSNVTVLDAYPIPSSQSAGNDLNKIMGVDLRNPVDLQLALEARQMWNEDELFKKFFHNTGRLDCAHGEKDIAKLKSLYQKLVDAGLDATNEWLDSEDEILKRMPLLSRDQIKGWKAIFSKDGGWLAAAKAINAVGEYLRDQGVRFGFYGAGSFKAPLLAEGVCIGVETVDGTRYYADKVVLAAGAWSPTLVELHEQCVSKAWVYGHIQLTPEEAARYKNSPVVYNGDVGFFFEPNEHGVIKVCDEFPGFTRFKMHQPFGAKAPKRISVPRSHAKHPTDTIPDASDVSIRRAIATFMPQFKNKKMFNQAMCWCTDTADAALLICEHPEWKNFVLATGDSGHSFKLLPNIGKHVVELLEGTLADDLAHAWRWRPGSGDALKSRRSAPAKDLADMPGWNHDKPRANL
On to B19, for which the Specific activity (U/mg), 1 mM αF6P worked out at 0.125 U/mg and the “specific activity on αF6P, fold over PnFX” value is “specific activity was elevated by 13.7 fold”.

B20: PnFX-62D/63H/106K/110L/113K/351S (protein)
chain: B19 chain with L63H, A351S
With B20, the Specific activity (U/mg), 1 mM αF6P amounted to 0.667 U/mg.

B21: amadoriase exhibiting 95% sequence identity with ketoamine oxidase derived from Curvularia clavata (Cc95FX) (protein)
chain: MAPSRANTSVIVVGGGGTIGSSTALHLVRSGYTPSNITVLDAYPIPSSQSAGNDLNKIMGIRLRNKVDLQLSLEARQMWREDDLFKEYFHNTGRLDCAHGEEGLADLRQAYQALLDANAGLEETTEWLDSEDEILKKMPLLSRDQIKGWKAVYSQDGGWLAAAKAINAIGEYLRAQGVKFGFGGAGSFKQPLLAEGVCIGVETVDGTRYYADKVVLAAGAWSPTLVELHEQCVSKAWVYGHIQLTPEEAAEYKNSPVVYNGDVGFFFEPNEHGVIKVCDEFPGFTRFKMHQPFGAKAPKRISVPRSHAKHPTDTIPDASEKSIRKAIATFLPKFTEKELFNRHLCWCTDTADAALLICEHPEWKNFVLATGDSGHSFKLLPNIGKHVVELLEGTLADDLAHAWRWRPGSGDALKSRRSAPAKDLADMPGWKHDDVVKSKL
The protein B21 gave a αF6P oxidation activity, relative to αFVH oxidation activity designated to be 100 (relative (αFVH = 100)) of 0.

B22: Cc95FX-62D/63H/106K/110L/113K/353S (protein)
chain: B21 chain with R62D, L63H, D106K, A110L, A113K, A353S
B22 showed a αF6P oxidation activity, relative to αFVH oxidation activity designated to be 100 (relative (αFVH = 100)) of 237.
